Source: patent US20170306017A1 (VACCINEX, published 2017)
Read-outs that look alike come from different tables or passages of the source.

T1: marmoset CD100 (marmoset, UniProt A0A8I3W811 22-734)
T1 construct: also called marmCD100; monkey CD100
T1 sequence: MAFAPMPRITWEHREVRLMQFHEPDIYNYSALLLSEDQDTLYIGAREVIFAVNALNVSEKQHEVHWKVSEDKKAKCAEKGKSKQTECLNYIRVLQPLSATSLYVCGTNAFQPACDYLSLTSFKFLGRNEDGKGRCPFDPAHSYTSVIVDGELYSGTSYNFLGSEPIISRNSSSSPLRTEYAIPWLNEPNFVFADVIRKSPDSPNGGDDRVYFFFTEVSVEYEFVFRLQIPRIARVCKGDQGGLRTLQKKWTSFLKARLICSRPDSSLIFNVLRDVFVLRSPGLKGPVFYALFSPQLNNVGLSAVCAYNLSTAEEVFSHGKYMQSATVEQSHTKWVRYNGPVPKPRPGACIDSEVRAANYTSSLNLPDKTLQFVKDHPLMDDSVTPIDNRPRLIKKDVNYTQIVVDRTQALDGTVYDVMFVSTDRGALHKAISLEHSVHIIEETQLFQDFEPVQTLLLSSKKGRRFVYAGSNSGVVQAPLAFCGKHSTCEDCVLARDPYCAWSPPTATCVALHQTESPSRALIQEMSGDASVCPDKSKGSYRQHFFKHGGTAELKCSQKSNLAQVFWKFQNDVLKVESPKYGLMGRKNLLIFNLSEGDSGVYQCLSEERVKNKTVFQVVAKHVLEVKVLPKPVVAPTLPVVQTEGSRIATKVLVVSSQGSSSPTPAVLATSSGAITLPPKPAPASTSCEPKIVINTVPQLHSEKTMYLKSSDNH

T2: human CD100-Fc (human, UniProt Q92854 22-734, limits assumed)
T2 sequence: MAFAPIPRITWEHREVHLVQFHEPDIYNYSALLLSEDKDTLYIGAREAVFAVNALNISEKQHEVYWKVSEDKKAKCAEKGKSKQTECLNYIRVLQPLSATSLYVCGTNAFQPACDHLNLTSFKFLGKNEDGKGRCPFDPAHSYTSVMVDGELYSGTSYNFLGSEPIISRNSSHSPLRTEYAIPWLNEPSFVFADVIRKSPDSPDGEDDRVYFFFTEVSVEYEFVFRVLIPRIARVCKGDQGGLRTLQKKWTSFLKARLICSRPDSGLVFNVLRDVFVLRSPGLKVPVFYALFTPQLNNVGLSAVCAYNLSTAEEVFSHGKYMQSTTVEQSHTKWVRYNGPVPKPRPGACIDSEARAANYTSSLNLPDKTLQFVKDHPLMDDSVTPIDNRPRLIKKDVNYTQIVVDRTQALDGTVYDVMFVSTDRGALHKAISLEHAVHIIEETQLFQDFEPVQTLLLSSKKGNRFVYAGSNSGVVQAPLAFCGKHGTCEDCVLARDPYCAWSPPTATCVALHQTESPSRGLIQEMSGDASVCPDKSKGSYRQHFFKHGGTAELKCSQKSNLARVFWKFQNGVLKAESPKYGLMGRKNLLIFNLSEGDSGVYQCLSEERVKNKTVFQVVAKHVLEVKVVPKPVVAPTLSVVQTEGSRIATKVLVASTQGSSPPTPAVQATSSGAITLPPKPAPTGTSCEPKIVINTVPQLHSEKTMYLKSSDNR

T3: mouse CD100 (mouse, UniProt O09126 24-733, limits assumed)
T3 construct: also called murine CD100; muCD100
T3 sequence: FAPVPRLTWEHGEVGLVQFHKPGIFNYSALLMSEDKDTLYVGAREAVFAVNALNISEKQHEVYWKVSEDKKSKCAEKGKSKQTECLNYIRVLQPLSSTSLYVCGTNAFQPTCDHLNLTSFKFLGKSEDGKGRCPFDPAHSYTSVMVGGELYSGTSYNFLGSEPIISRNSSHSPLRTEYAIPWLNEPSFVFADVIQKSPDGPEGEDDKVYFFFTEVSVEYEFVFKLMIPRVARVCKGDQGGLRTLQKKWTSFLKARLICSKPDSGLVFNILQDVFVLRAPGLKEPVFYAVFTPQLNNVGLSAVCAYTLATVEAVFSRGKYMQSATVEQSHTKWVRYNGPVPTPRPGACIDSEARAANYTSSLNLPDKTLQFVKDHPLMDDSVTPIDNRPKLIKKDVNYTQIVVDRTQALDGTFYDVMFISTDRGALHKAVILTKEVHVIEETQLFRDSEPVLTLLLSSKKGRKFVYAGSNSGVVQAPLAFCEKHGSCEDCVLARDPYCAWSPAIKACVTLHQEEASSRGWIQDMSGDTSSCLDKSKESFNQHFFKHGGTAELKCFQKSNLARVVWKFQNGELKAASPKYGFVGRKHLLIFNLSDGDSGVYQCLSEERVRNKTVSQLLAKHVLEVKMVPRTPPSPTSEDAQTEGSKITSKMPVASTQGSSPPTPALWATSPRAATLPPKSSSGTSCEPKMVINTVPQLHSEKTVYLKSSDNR

T4: human CD100 (human, UniProt Q92854 22-734, limits assumed)
T4 construct: also called huCD100; SEMA4D
T4 sequence: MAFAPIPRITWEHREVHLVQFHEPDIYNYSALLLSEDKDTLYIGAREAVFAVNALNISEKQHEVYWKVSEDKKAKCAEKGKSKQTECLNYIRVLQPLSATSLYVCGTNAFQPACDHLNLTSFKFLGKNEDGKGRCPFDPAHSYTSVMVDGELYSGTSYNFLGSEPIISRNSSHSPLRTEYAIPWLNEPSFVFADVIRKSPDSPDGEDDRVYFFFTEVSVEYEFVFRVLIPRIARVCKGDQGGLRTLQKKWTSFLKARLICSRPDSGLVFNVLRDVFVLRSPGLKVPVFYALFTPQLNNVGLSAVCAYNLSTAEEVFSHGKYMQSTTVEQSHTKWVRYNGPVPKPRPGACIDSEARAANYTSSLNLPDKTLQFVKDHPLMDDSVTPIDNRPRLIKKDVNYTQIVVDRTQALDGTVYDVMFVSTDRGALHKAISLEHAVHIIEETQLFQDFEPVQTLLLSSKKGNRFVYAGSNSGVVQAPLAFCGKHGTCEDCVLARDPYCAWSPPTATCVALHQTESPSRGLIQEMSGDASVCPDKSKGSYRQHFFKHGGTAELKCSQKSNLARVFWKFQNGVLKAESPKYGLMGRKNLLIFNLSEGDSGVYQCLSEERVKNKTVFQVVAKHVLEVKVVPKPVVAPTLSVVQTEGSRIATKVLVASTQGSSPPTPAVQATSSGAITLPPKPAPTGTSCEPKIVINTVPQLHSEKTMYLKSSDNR

B1: MAb 67 (antibody, IgG1, V domains shown)
VH: QVQLQQSGPELVKPGASVKISCKASGYSFSDYYMHWVKQSPENSLEWIGQINPTTGGASYNQKFKGKATLTVDKSSSTAYMQLKSLTSEESAVYYCTRYYYGRHFDVWGQGTTVTVSS
VL: DIVMTQSPASLAVSLGQRATISCKASQSVDYDGDSYMNWYQQKPGQPPKLLIYAASNLESGIPARFSGSGSGTDFTLNIHPVEEEDAATYYCQQSNEDPYTFGGGTKLEIK
notes: also called mouse MAb 67; murine MAb 67
B2: MAb 2503 (antibody, V domains shown)
VH: QVQLVQSGAEVKKPGSSVKVSCKASGYSFSDYYMHWVRQAPGQGLEWMGQINPTTGGASYNQKFKGKATITVDKSTSTAYMELSSLRSEDTAVYYCARYYYGRHFDVWGQGTTVTVSS
VL: DIVMTQSPDSLAVSLGERATINCKASQSVDYDGDSYMNWYQQKPGQPPKLLIYAASNLESGVPDRFSGSGSGTDFTLTISSLQAEDVAVYYCQQSNEDPYTFGQGTKLEIK
notes: also called humanized MAb 67; H2160/L553
B3: MAb 76 (antibody, IgG2b, V domains shown)
VH: QVQLQQSGAELAKPGASVKMSCKASGYTFTRYWMHWVKQRPGQGLEWIGYINPSTGYSDYNQKFKDKATLTADKSSSTAYMQLSSLTSEDSAVYYCARDPYGWTMDSWGQGTLVTVSS
VL: DIQMTQSPSSLSASLGDTITITCHASQNINVWLSWYQQKPGNIPKLLIYKASNLHTGVPSRFSGSGSGTGFTLTISSLQPEDIATYYCQQGQSYPYTFGGGTKLEIK
notes: also called clone 76-1; 76-1

Columns and labels:
marmoset CD100 = biological target: T1, marmoset CD100; experiment: BIACORE surface plasmon resonance
Experimental: (§1) Binding affinities of anti-CD100 MAbs were determined using BIACORE® surface plasmon resonance technology.

human CD100-Fc = biological target: T2, human CD100-Fc; experiment: competition ELISA on plate-coated human CD100-Fc; unlabelled antibody titrated first, competitor biotinylated MAb 67 detected with streptavidin-HRP
Experimental: For the ELISA protocol, an ELISA plate was coated with CD100-Fc. […] The antibodies were allowed to bind to CD100 and unbound antibody was wash away. Biotinylated MAb 67 was added. Biotinylated MAb 67 bound to CD100 was detected using Streptavidin-HRP.

mouse CD100 [1] = biological target: T3, mouse CD100; experiment: BIACORE surface plasmon resonance
Experimental: as §1

human CD100 [2] = biological target: T4, human CD100; experiment: BIACORE surface plasmon resonance
Experimental: as §1

mouse CD100 [3] = biological target: T3, mouse CD100; experiment: BIACORE surface plasmon resonance; remark: listed apart in the source
human CD100 [4] = biological target: T4, human CD100; experiment: BIACORE surface plasmon resonance; remark: listed apart in the source

Binder | Kd (marmoset CD100) [nM] | IC50 (read off the curve) (human CD100-Fc) [nM] | Kd (mouse CD100 [1]) [nM] | Kd (human CD100 [2]) [nM] | Kd (mouse CD100 [3]) [nM] | Kd (human CD100 [4]) [nM]
B1 | 2.7 | – | – | – | – | –
B2 | 2.4 | ~0.2 | 1.5 | 5.4 | – | –
B3 | – | – | – | – | 0.33 | 0.12
